Experiment: soluble on expression in E. coli; label from the status in PepcDB or PDB records

Row | Sequence | soluble on expression in E. coli
1 | MGDEFRPSHEERSKMYKSNVRDQNEMRRKRREDEVQIRKNRRDEKFERNRQITVQRSLSHEETSELLKSVADGLQSMQETTIHEALTVLHENLNNTVWTIHVLVKVQILHKLSDVYCNRVISQTTRLLISRTLLKISGIDEVKYERYSSDDRCIQSLVFNISTYGSSEDILCDTFQSIACFIIRSITYRNLALDCAIVSELIDASTINMSIILHRSLMWLVFLFCEKLDRCSPHVDEIAPLLEIISNGIQSTDAMVQTDAASSCASLAEWPPIYHYMSDLKLCSKLVANLRNDKGNARPKVKAGINSIIQATGYFTEEMIDAGLLEVLKGFVNVSYMSQEVCFIISNICVEGEQTIDKLISSGVLREVARVMEASEYRSRREAAFVICHCCASANQKHLEYVVELGMLSAFTDLLTCMDVSLVSYILDAIYLLLQFGEMRLLPDNSNPVAIKLEEIGCREKLEFLCESQSVDIHARAYTIIDRFYVDDDAPLNDDPFAGYQRNNIDDTIEKMIREPIMDQPFSF | not soluble
2 | MAHHHHHHMSSQKESKKRKSDALDQACLELSEEVENAEEVPKKNDEVEEEDLETQFSNWKVNSGLLYDFVSRKELEWPSLSIDFGDYHNENVEDSVFNQIVCVGTHTSNKELNYLYVCEVLFPLEQLPQENCIYKTNQNYEGFDFCPDKKKFTIQSKIAHEGEVNRIKFLPLEKKNFVVTKAIDGNLHLFDINKHEIETSEDKMSPEVSFIGNSSDGFGLDFNAEKKYALTCGNDGVLNLYDYTEMDSKKVSPFYSVKYKSPLNDVCATNDPNLILSCADNGYILMYDIRVKGEEPAQQVLGQQVAVNCISLNKFTGHFASGSENGKIKIWDIKRFSEPQHIIHAHKEPIIRLNFSPNDSSILGSASTSRFINIYNLTKIGEELDAIDLSDGPSELIFSHGGHTQPITDFNWNHHKQLKMFIGSTGEDNTLQFWQLKTELLDEANTVPTSNTDVE | not soluble
3 | MGSDKIHHHHHHVEGDCMGKGRFILMLHAHLPFINHPDFPSFMEERWLFEAITETYIPLLQGFRRLKRDGVNFKVTMSITPPLMEMFANKDLQKKYLNYLSSSIELAGNEISRTVSEHPAANRLATHYLRELEEIRAVYNECNGDLVGEFAQLQETGELEIVTCNATHGFLPLMTNFPEAINAQIEIGVDSYKKHTGREPRGIWLAECGYVPGFDSYLREHGLSFFFVDSHSLWYGDPAPRYGVYRPVVTPENVFAFARDPESSQQVWSAEVGYPGDARYREFYRDVGFDREEDYIRPYIDPSGERCNTGIKYYKITGKDVSLNEKGYYDIEDARRATVEHAKDFANRKREQIRRLSSQFDGEEPVIVAPFDAELFGHWWYEGPLFIEELFRELNGDITVVPSTPPEVIKSMEQAQVVTP | not soluble
4 | MGSDKIHHHHHHMDSVKLIDLSEMRDILRSVNPFPGRWSFITSVEYMLDSRLYVDSIGDDAKVVRATLGPHDRNILDFGTGSGVFAIALRQVLPELDISAVDTTDNKSQSHPDFSDGQAAAHQRLIYPPLAERFRISFNHYNGHLLPYPDGSFDAISAYAVIEHIPHEELDAAMREIARVLKDDGKLFVFKMPRKLALVEHVAGILGLGRHDTLYGDGEALRLFRSYGWKVEKTFKSNMVFDYPGWLTNRLYHPLKLIDRILYWSPWRLFAHHNNFVLRKLERPQL | not soluble
5 | MLYKIYSYLGWRIDMKTENLPQAGQEAQIDKKIHFIWVGHIMPQKNIQVVSEWAEKNPGYETIIWVDKKIAPAKELDLFILDMKSKGITVKDINEEGVCRDSIRHELDQESPNYGMVSDMLRLNILAAEGGIYLDSDILCSAPFPDEIYAPFGFLLSPWSQGANNTLCNDIILCSKGNQIIQQLADAIEQSYIARDSFEFTHEYASMKETKGERIAKTLGVTGPGFLFHQLKKMGILNDKSEMEAIHWELQDQRYLIDGSVKEPDYFYVPQNNTNDASWVPSIKRPGIENMSFQERLENAVQLIAFDIQKTGLFNLDHYANELKVKQNSWCIAAETSPELKPDSYLLIRPRDKTGEWTLYYVDEDKKLNPVTLPVIKGAIKLSEVSDPLRKFHTLLSQVSDPVNPTAHELKQIGRALIELKPRQDEWHCKNKWSGAEEIAQELWQRITSNETLRAQIKQCFTQFESLKPRVAELGLTRASGAGTEVEAHESTVKEQEIISQNTVGEEGTKEKNSVQLASENSSDEKIKTAHDLIDEIIQDVIQLDGKLGLLGGNTRQLEDGRVINIPNGAAMIFDDYKKYKQGELTAESALESMIKIAKLSNQLNRHTFFNQRQPETGQFYKKVAAIDLQTTIAAEYDNNHGLRILEHHHHHH | not soluble
6 | MLKQSLATLLLCSTLSPLAVVLPTLAGPGDGGMGWGAKVENLNLTPEQRQNLQAIRQRYQSQIEETRTQLRTAKDELRRLMASNASDEQIRAKHAQVQQLQQKLATLRFESMLATRKILTPEQRQALAERMQNRQGQRRLERLEHHHHHH | soluble
7 | MLPFLPEPSLSYTQQNRTAVLLLNLGTPDAPTAQAVRPYLKSFLTDRRIVELPKWLWYPILHGLVLTFRPKKSAHAYEKIWFKEGSPLEVYTARQAAALAERMPDLIVRHAMTYGNPSIADVLAELKSQGVGRLLAIPLYPQYAASSSGAAVDKVCEQLLLQRNQMSVRTISRFYDDAGYIDAMKNHILRYWAEHGRGKKLMLSFHGVPQKHYDLGDPYPDECRHTAKLLAEALELTEDEYTVSFQSQFGRAKWVTPSTQDLFGKLPKQGVTELDVFCPGFLADCLETMEEIALMGREQFYEAGGKNYRYIPCLNDNPDWIDALVALAEENLGGWR | not soluble
8 | MSLGRLVLNTKEELANERLMTLKIAEMKEAMRTLIFPPSMHFFQAKHLIERSQVFNILRMMPKGAALHLHDIGIVTMDWLVRNVTYRPHCHICFTPRGIMQFRFAHPTPRPSEKCSKWILLEDYRKRVQNVTEFDDSLLRNFTLVTQHPEVIYTNQNVVWSKFETIFFTISGLIHYAPVFRDYVFRSMQEFYEDNVLYMEIRARLLPVYELSGEHHDEEWSVKTYQEVAQKFVETHPEFIGIKIIYSDHRSKDVAVIAESIRMAMGLRIKFPTVVAGFDLVGHEDTGHSLHDYKEALMIPAKDGVKLPYFFHAGETDWQGTSIDRNILDALMLNTTRIGHGFALSKHPAVRTYSWKKDIPIEVCPISNQVLKLVSDLRNHPVATLMATGHPMVISSDDPAMFGAKGLSYDFYEVFMGIGGMKADLRTLKQLAMNSIKYSTLLESEKNTFMEIWKKRWDKFIADVATKEGHHHHHH | not soluble
9 | MAHHHHHHMSAHEEEIDMILSMFSDECERYEGTSDSIIVHLPFHFELQVTLPPHGYPDASYPKLYLLSSPNAQLASAFSQAVYRRMRDEISLGIPMLALLIPLAQSVAEELKDLKERAEKARQDEAVERMSELQRKEEHRRETGIAIWSGQAIVDRRSRFVAHMARVHSMDEVREVVGHLRSVKSIACAAHPTIYAYRFTDANGVLQKDSDDDGESGASIKMMFLLDHLQIDGYVVVVTRWWGGILLGPDRFKHIMEVTKNLLLTIPEREKEMAASAKRKSLR | soluble
10 | MLPGTFFEVLKNEGVVAIATQGEDGPHLVNTWNSYLKVLDGNRIVVPVGGMHKTEANVARDERVLMTLGSRKVAGRNGPGTGFLIRGSAAFRTDGPEFEAIARFKWARAALVITVVSAEQTK | soluble
11 | MKFVAVIRQVPDGESKLRIQGDRVDLSGATMILDQMDEYAVEEAIRLKERHGGEAVVVGFGPERTEEAIRTALAMGMDRGVHVVYEGFADPVAVAEALVEVLKEEAPTLVLTGGQQADWDSQALGGALTEALGVPVVAWTTALELEGDTAKAKHDLDEGAEWVRVRLPAVFTTQQGLNEPRYPTLPGIMKAKKKEIRKVQASLTPKVTLISEEIQEKSRLGKILDGKDPVAAAEELVRLLHEEAKVI | soluble
12 | EVRLVSLRRAKAHEGLGFSIRGGSEHGVGIYVSLVEPGSLAEKEGLRVGDQILRVNDKSLARVTHAEAVKALKGSKKLVLSVYSAGRI | soluble
13 | SQEVMKNLSLNFGKALDECKKEMTLTDAINEDFYNFWKEGYEIKNRETGCAIMCLSTKLNMLDPEGNLHHGNAMEFAKKHGADETMAQQLIDIVHGCEKSTPANDDKCIWTLGVATCFKAEIHKLNWAPSMDVAVGEILAEV | soluble
14 | MIKVDMTVDAKGLSCPMPIVRTKKAINELQPGQVLEVQATDKGSKADIKAWAESTGHQYLGTIEENGVLKHYIRKSAEHETRKETTFPHVVSNEELQEKLHDPDSFVLDVREPAEYAFGHIPGAVSIPLGELENRMAELPKDKTIYVVCRTGTRSDLAAQKLAEKGFDRVRNVIPGMSQWNGPLDSAQS | soluble
15 | MGSDKIHHHHHHMGLNLSKGDMYKFVNYTWNPIKGKCLHDCSYCYMKQINPNANPPRLAEYELNTDLGCGRSIFIGSSTDMFAEDIPSEWIARVLDYCYQNRNMLLPNAYLLQSKNPKRFLEFINHPIMERVVFCTTIETNRFYPEIMNKAPRIDERVEAMEEIARLGRPTMVTAEPLMQFDHEEMVSFIRRCSPKLVNIGRNSCRRIVLPEPTQEEVQQLIAELKSLKSFTKVNVKDNALEWCK | not soluble
16 | MAHHHHHHMASSEEEKRVAYCKQHNVHHLFELLATKLLLDRPENPFEYLREMLSKVEESEKSKQSYDPTVLSPPVNGAVEPLKKITLGTFGLDNAGKTTLISALGGQIEVNTTPTVGFTPTKFQTEKYDICIFDLGGAANFRGIWVHYFHDCHGLMFVIDSAADDAVVRESLNVLRDLSQHRYIKGKPILVLANKKDLENARGTKVIPNGFLDKLFGRNTAYRVVASCGIEEDPALEEGVEWLLSVVDKLHDTLEARVNCDTEEVKMEAKRKAAERLAALKTAS | not soluble
17 | SLFLLDPFSGISGDMFLSAMIDFVDKEDFINTIKKVIDVEIEIKKVKKCHILANKVNIIPKCINCNANTYKDIKNVIKSSDIQEDIKITALEILKILAEAESKVHNVDVENVHFHEVGNYDTIADIVGAAYIINKLNLKNNCLYKPINVGNGFVRTEHGLLPVPAPATAEILKGLKIFFSDINEELTTPTGSAIIKYINPKLAKGAFIIKEVSYGAGDKDLNLLNALRVFRVEDIKREDIVLLETNVDDISAEILGYLYEVLDGKVRDLHFIPTYMKKNRPAYTIRAIVDRDIAEEVAKIIMRETGSLGVRIFDIERITADREFKTIKLFDESVRLKVGRVNDEIISQKPEFEDLKNIAKKYGIPLKDLYKLINISQIKN | soluble
18 | MNEREAKMYELEFPAPDVASDGVDGPTLIIAMQGYADAGLAVEASADHLLSALEHRPVAVFNNDELIDYRSRRPAVTIDHNIVVDANELKLSMDVLRDSNGTPFLLLSGPEPDLRWDAFSQAVADLVRRFGVRRTICIYAAPMTVPHTRPLIVSAHGNSLDLIKHHFSIDSKVTIPGSASLHIERLLNKNNIDVAGYTAHVPHYLSASAYPLATLKLLEAITTSTNLDFPLKTLEADAQKTALQVEEQVAGSQEIESVVKILEQQYDEELEKYRERNPKALEIAEDDLPDADELGEEFERFLANIDEENGSDD | not soluble
19 | GHHHHHHAIAENLYFQSKDVPGFLQQSQSSGPGQPAVWHRLEELYTKKLWHQLTLQVLDFVQDPCFAQGDGLIKLYENFISEFEHRVNPLSLVEIILHVVRQMTDPNVALTFLEKTREKVKSSDEAVILCKTAIGALKLNIGDLQVTKETIEDVEEMLNNLPGVTSVHSRFYDLSSKYYQTIGNHASYYKDALRFLGCVDIKDLPVSEQQERAFTLGLAGLLGEGVFNFGELLMHPVLESLRNTDRQWLIDTLYAFNSGNVERFQTLKTAWGQQPDLAANEAQLLRKIQLLCLMEMTFTRPANHRQLTFEEIAKSAKITVNEVELLVMKALSVGLVKGSIDEVDKRVHMTWVQPRVLDLQQIKGMKDRLEFWCTDVKSMEMLVEHQAHDILT | soluble
20 | FINDVDLIITVEELDSFLEDQLLQLLGKHDISKTVYGKKNNIFPCCGEYSVDIVKTGINKVLDILKIQKIEISEKLIEKTDIIPLPVRPPNLCAGCMHRTVFYAFKEVSKDLKKQNIQIIFSGDIGCYTLGNAPPLELIDTCLCMGAGISLAGGI | not soluble
